Experimental findings from patent US20240400675A1 (published 2024) are described below.

Where a chain is given by its changes, count along the chain named.

T1: human CLDN9 (UniProt O95484 1-217)
T1 chain: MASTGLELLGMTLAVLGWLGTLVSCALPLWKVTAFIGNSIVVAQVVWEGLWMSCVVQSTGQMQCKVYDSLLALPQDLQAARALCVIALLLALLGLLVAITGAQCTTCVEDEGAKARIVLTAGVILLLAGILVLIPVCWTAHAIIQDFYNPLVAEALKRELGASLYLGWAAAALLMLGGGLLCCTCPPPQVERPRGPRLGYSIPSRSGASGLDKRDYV

T2: human CLDN6 (UniProt P56747 1-220)
T2 chain: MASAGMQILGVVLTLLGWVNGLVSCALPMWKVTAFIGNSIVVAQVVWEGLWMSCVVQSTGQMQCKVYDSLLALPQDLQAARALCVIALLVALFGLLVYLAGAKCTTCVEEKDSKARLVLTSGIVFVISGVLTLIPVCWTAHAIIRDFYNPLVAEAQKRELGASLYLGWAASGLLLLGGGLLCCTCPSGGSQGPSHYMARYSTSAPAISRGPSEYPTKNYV

B1: XENP35070 H2_L1.27 (antibody, V domains shown)
VH: EVQLVQSGAEVKKPGESLRISCKTSGYTFTEYTMHWVRQMPGKSLEWMGGIDPNNGNTHYNQKFQGHVTISVDKSISTAYLQWSSLKASDTAMYYCARIYYFGRLYFDFWGAGTLVTVSS
VL: DIQMTQSPSSLSASVGDRVTITCQASEDIYNRLAWYQQKPGKVPKLLISGATSLESGVPSRFSGSGSGKDYTFTISSLQPEDIATYYCQQYWSSPLTFGGGTKVEIKR
B2: XENP35101 having H2.8_L1 (antibody, V domains shown)
VH: B1 VH with G56D
VL: B1 VL with S56T
B3: XENP35092 H1.8_L1 (antibody, V domains shown)
VH: QVQLVQSGAEVKKPGASVKVSCKTSGYTFTEYTMHWVRQAPGQSLEWMGGIDPNNDNTHYNQKFQGRVTITVDKSASTAYMELSSLRSEDTAVYYCARIYYFGRLYFDFWGAGTLVTVSS
VL: B1 VL with S56T
B4: XENP35047 H2_L1.4 (antibody, V domains shown)
VH: B1 VH
VL: B1 VL with I29V, S56T
B5: XENP35091 H1.7_L1 (antibody, V domains shown)
VH: B3 VH with N55Q, D56G
VL: B1 VL with S56T
B6: XENP35093 (having C6-30 H1.9_L1) (antibody, V domains shown)
VH: B3 VH with D56A
VL: B1 VL with S56T
B7: XENP35066 H2_L1.23 (antibody, V domains shown)
VH: B1 VH
VL: B1 VL with L54R, S56T
B8: XENP35062 H2_L1.19 (antibody, V domains shown)
VH: B1 VH
VL: B1 VL with T52S, S56T
B9: XENP35100 H2.7_L1 (antibody, V domains shown)
VH: B1 VH with N55Q
VL: B1 VL with S56T
B10: XENP35102 having H2.9_L1 (antibody, V domains shown)
VH: B1 VH with G56A
VL: B1 VL with S56T
B11: XENP35061 H2_L1.18 (antibody, V domains shown)
VH: B1 VH
VL: B1 VL with A51T, S56T
B12: XENP35096 H2.3_L1 (antibody, V domains shown)
VH: B1 VH with P53S
VL: B1 VL with S56T
B13: XENP35097 H2.4_L1 (antibody, V domains shown)
VH: B1 VH with P53G
VL: B1 VL with S56T
B14: XENP35065 H2_L1.22 (antibody, V domains shown)
VH: B1 VH
VL: B1 VL with S53Q, S56T
B15: XENP35050 H2_L1.7 (antibody, V domains shown)
VH: B1 VH
VL: B1 VL with N31S, S56T
B16: XENP35064 H2_L1.21 (antibody, V domains shown)
VH: B1 VH
VL: B1 VL with S53N, S56T
B17: XENP35087 H1.3_L1 (antibody, V domains shown)
VH: B3 VH with P53S, D56G
VL: B1 VL with S56T
B18: XENP35088 H1.4_L1 (antibody, V domains shown)
VH: B3 VH with P53A, D56G
VL: B1 VL with S56T
B19: XENP35059 H2_L1.16 (antibody, V domains shown)
VH: B1 VH
VL: B1 VL with G50A, S56T
B20: XENP35044 H2_L1.1 (antibody, V domains shown)
VH: B1 VH
VL: B1 VL with E27Q, S56T
B21: XENP35929 H2_L1.107 (antibody, V domains shown)
VH: B1 VH
VL: B1 VL with S56T, S94A
B22: XENP35883 H1.19_L1 (antibody, V domains shown)
VH: B3 VH with D56G, V93T
VL: B1 VL with S56T
B23: XENP35936 H2_L1.114 (antibody, V domains shown)
VH: B1 VH
VL: B1 VL with S56T, S94G
B24: XENP36065 H2.118_L1 (antibody, V domains shown)
VH: B1 VH with F64K
VL: B1 VL with S56T
B25: XENP36041 H2.91_L1 (antibody, V domains shown)
VH: B1 VH with G56F
VL: B1 VL with S56T
B26: XENP36025 H2.75_L1 (antibody, V domains shown)
VH: B1 VH with N54H
VL: B1 VL with S56T
B27: XENP36022 H2.72_L1 (antibody, V domains shown)
VH: B1 VH with P53A
VL: B1 VL with S56T
B28: XENP36021 H2.71_L1 (antibody, V domains shown)
VH: B1 VH with P53L
VL: B1 VL with S56T
B29: XENP36066 H2.119_L1 (antibody, V domains shown)
VH: B1 VH with Q65E
VL: B1 VL with S56T

One experiment has as its target T1, human CLDN9. Briefly: HEK293E cell binding; avid.
On to B1, for which a half-maximal response (EC50) required 29.7 µg/mL.
On to B2, for which the EC50 – broadly, the concentration giving half of the maximal effect – came out at 1.06 µg/mL.
The same measure, in the same setting: under B3 stands 25 µg/mL; under B4, 17.6 µg/mL.
B5 displayed an EC50 of 31.4 µg/mL.
B6 gave an EC50 of 53.1 µg/mL.
Still for that read-out and setting: under B7 stands 31.8 µg/mL; under B8, 86.8 µg/mL.
The same measure, in the same setting: under B9 stands 63.5 µg/mL; under B10, 1.43 µg/mL; under B11, 56.3 µg/mL.
Same read-out and setting: under B12 stands 110 µg/mL.
B13 yielded a half-maximal effective concentration (EC50) of 72.9 µg/mL.
The same measure, in the same setting: under B14 stands 69.1 µg/mL.
B15: the half-maximal effective concentration (EC50) was 99.3 µg/mL.
B16 showed an EC50 of 14.1 µg/mL.
Still for that read-out and setting: under B17 stands 31.8 µg/mL.
B18 returned an EC50 of 29.2 µg/mL.
Take B19: the half-maximal effective concentration (EC50) was found to be 32.7 µg/mL.

A further experiment deals with T2, human CLDN6. Briefly: HEK293E cell binding; avid.
Molecule B1 yielded an EC50 of 1.18 µg/mL.
On the same count and under the same terms, under B2 stands 24.8 µg/mL; under B3, 1.16 µg/mL; under B4, 0.795 µg/mL.
Molecule B5 showed an EC50 of 1.43 µg/mL.
Same read-out and setting: under B6 stands 0.978 µg/mL; under B7, 1.59 µg/mL.
B8 registered a concentration for a half-maximal effect (EC50) of 1.23 µg/mL.
Same read-out and setting: under B9 stands 1.14 µg/mL; under B10, 3.53 µg/mL.
Molecule B11 had an EC50 of 1.25 µg/mL.
Same read-out and setting: under B20 stands 4.34 µg/mL; under B12, 1.24 µg/mL.
In turn, B13 came in with a half-maximal effective concentration (EC50) of 1.1 µg/mL.
Molecule B14 gave an EC50 of 1.48 µg/mL.
Still for that read-out and setting: under B15 stands 2.22 µg/mL.
Same read-out and setting: under B16 stands 0.979 µg/mL.
On the same count and under the same terms, under B17 stands 1.2 µg/mL; under B18, 1.29 µg/mL; under B19, 1.28 µg/mL.

A further experiment addresses T1, human CLDN9. Briefly: HEK293E cell binding; avid. The source holds these as a separate data set.
Consider B21, for which the EC50 came out at 99.1 µg/mL.
The molecule B22 showed an EC50 of 16.8 µg/mL.
Turning to B23, a half-maximal response (EC50) required 57.4 µg/mL.
In the case of B24, the EC50 worked out at 492 µg/mL.
As for B25, the EC50 was 32.5 µg/mL.
Consider B26, for which the 50% effective concentration (EC50) is 61.1 µg/mL.
On to B27, for which a half-maximal response (EC50) required 47.2 µg/mL.
Same read-out and setting: under B28 stands 49.3 µg/mL; under B29, 18 µg/mL.

A further experiment deals with T2, human CLDN6. Kind of experiment: HEK293E cell binding; avid. The source holds these as a separate data set.
Turning to B21, the response was half-maximal at 0.792 µg/mL (EC50).
In the case of B22, the midpoint of the response, the EC50, lay at 0.617 µg/mL.
The molecule B23 registered an EC50 of 0.829 µg/mL.
B24: it took 0.783 µg/mL to reach a half-maximal effect (EC50).
On the same count and under the same terms, under B25 stands 0.449 µg/mL; under B26, 1.34 µg/mL.
B27 showed an EC50 of 0.514 µg/mL.
Same read-out and setting: under B28 stands 0.902 µg/mL.
B29 came in with an EC50 of 0.567 µg/mL.
